Where two headings read alike, the source gives them in different places.
B1: AxyAgu115A: GH115 α-glucuronidase from Amphibacillus xylanus, SEQ ID NO: 4 (protein, listed as Amphibacillus xylanus)
chain: MDFTLNQEMLMTDTKSGALFYQEEEALSGVRKIANKVMHDVELVFGYQPEATKDRDMLSRHAVLYGTVGHSPLLDELNKKELIDLTEIAGKREVFLFQVVDQPIQGVEKALVIAGSDKRGTIYGLFHLSEKLGVSPLVDWSGVLPARKESFSLKGDYKYVSKEPSVKYRGFFINDEWPAFGNWSAKNFGGFNAEMYDHVFELLLRLKGNYLWPAMWSARFNDDGPGLANVELADEYGVIMGASHHEPCLRYGEEYKYLRGPDSIYGDAWNFITNREGITKFWEDGLKRTGHFENIITIGMRGEADTKIMGEDATLEDNINLLRDVIQTQNKLIKEHVNPNLKEVPRMLALYKEVEPFFYGDENTPGLINSEELEDVILMLCDDNHGNLRTLPTEDMRKHSGGYGMYYHFDYHGGPVSYEWINSSYLPKIWEQMTMAYDFGVRDLWIVNVGDIATQELPLSFFLDLAYDFDKWGTNAINKTDDYTKQWIEQQFAGVFNLEQKDKVFELLNGYTKIAHNRRPEAMNVDVYHPVNYHETDQLLDRIDHLLGLAEELYQEVDQQHFTAYFALVYYPTVGNLNLQKMWLLNGKNKYAAQLNLIEANKLAEQVKACLKRDQEIVDEYHTIADGKFYGMGLSEHIGFVHWNEDENKNPVLSYVLPVNKPRLLVSIDGTELRSEGSPWHVNTLPLVDFLEPDVNQASFTISSVSEKKAEYHISTDQDWLSCSAANGVLDGKNKLSETIHVFVDRDGLADQAEGRITVKTPVGKVTIVVPVVNNDFTNYPDMTFVDTKGYISIEAEHFATQKATENLDGTLNRFEVLDGYGKTLSAIKAFPTDTHYQVGKDAPFVEYHFVTQEAGVYELEFYLQPSNPVTREGTMYAGIQVNENDVDVINVLPDGYHVDGPHWGIDVINNIRTTKTKITCEQGLNKLRIYAVSPGFALEKIVIYPDGKKLANSYLGPNETYYVGR
B2: Y300A: GOOX variant with Y300A relative to SEQ ID NO: 1 (protein, listed as Sarocladium strictum)
chain: NSINACLAAADVEFHEEDSEGWEMDGTAFNLRVDYDPVAIAIPRSTEDIAAAVQCGLDAGVQISAKGGGHSYGSYGFGGEDGHLMLELDRMYRVSVDDDNVATIQGGARLGYTALELLDQGNRALTHGTCPAVGIGGHVLGGGYGFATHTHGLTLDWLVGATVVLADASIVHVSKTENADLFWALRGGGGGFAIVSEFEFNTFEAPEIITTYQVTTTWNRKQHVAGLKALQDWAENTMPRELSMRLEINANALNWEGNYFGNAKDLKKVLQPIMKKAGGKSTISKLVETDWYGQINTYLAGADLNITYNYDVHEYFYANSLTAPRLSDEAISAFVDYKFDNSSVRPGRGWWIQWDFHGGKNSALASHSNDETAYAHRDQLWLWQFYDNIYDYENNTSPYPESGFEFMQGFVATIEDTLPEDRKGKYFNYADTTLDKEEAQKLYWRGNLEKLQAIKAKYDPEDVFGNVVSVEPIA
modifications: (1)..(206) FAD-binding domain; (207)..(474) substrate-binding domain

How the values were obtained:
[1] = Release of MeGlcA from glucuronoxylan by AxyAgu115A (HPAEC-PAD); type: biochemical, beechwood; details: from 1.5 g glucuronoxylan, calculated on the MeGlcA standard curve
Protocol: Glucuronoxylan (6%) was incubated with AxyAgu115A (10 μg/mL) and GOOX-Y300A (10 μg/mL) in 100 mM Tris buffer pH 8.0 at 40° C. in a rotator oven for up to 72 h. The reactions were then vacuum-filtered using 96-well filter plates (0.22-μm PVDF membrane) (Millipore, USA) in a Tecan liquid handler (500 mbar) (Tecan Trading AG, Switzerland). Enzymatic products in the flow-through were confirmed by mass spectrometry and quantified by HPAEC-PAD analysis.
Reaction samples were vacuum-filtered using 0.22-μm, PVDF filter plates (Millipore, USA) with a Tecan liquid handler (500 mbar) (Tecan Trading AG, Switzerland). […] The presence of acidic sugars was detected using an ICS5000 HPAEC-PAD system (Dionex, USA) with a CarboPac PA1 (2×250 mm) analytical column (Dionex, USA). […] Chromatograms were analyzed using Chromeleon 7.2 (Dionex, USA).
AxyAgu115A was produced with high purity (FIG. 2). The treatment of glucuronoxylan with AxyAgu115A released only MeGlcA, as analyzed by HPAEC-PAD (FIG. 3), and no additional release of MeGlcA was seen after 16 h. […]
The concentration of MeGlcA released from 1.5 g glucuronoxylan was 21.6±1.2 mM, calculated by on the MeGlcA standard curve (FIG. 5) whereas the estimated molar concentration of MeGlcA, based on a previous analysis of glucuronoxylan composition (Teleman et al., 2002), was 24.4 mM. […]

[2] = H2O2 inhibition assay of AxyAgu115A on glucuronoxylan; type: biochemical, beechwood
Protocol: FIG. 10: HPAEC-PAD analyses of H2O2 effects on AxyAgu115A activity and MeGlcA degradation.
AxyAgu115A (10 μg/mL) was incubated with 1% glucuronoxylan in 50 mM Tris buffer pH 8.0 in the presence of various H2O2 concentrations (0.01-100 mM). MeGlcA (1 mM) was also incubated with the same H2O2 concentrations. The reactions were kept in the dark at 40° C. for 16 h in a thermomixer (Eppendorf, USA). Catalase (200 μg/mL) was then added, and the reactions were kept incubating for another 30 min to remove H2O2 before HPAEC-PAD analysis.
The MeGlcA concentration released by AxyAgu115A from 6% glucuronoxylan after 16 h was around the Km of GOOX-Y300A on this acidic sugar, supporting the usage of GOOX-Y300A and AxyAgu115 in a one-pot reaction. […] Thus, a one-pot sequential reaction was performed where GOOX-Y300A was added to the reaction after pre-hydrolysis of glucuronoxylan by AxyAgu115A for 4 h. Following 16 h of incubation with GOOX-Y300A, methyl glucaric acid yields were similar to those achieved using the two-pot sequential system described above (i.e., 60% yield as confirmed by LC-MS).

[3] = Activity screening of GOOX variants and glucose oxidase on MeGlcA; type: biochemical
[4] = 200 mM H2O2; cited from earlier work
[5] = Foumani et al., 2011; read-out: Km on glucose; cited from earlier work
[6] = Activity screening of GOOX variants and glucose oxidase on GlcA; type: biochemical; details: enzyme 16 nM, 37° C., 10 mM GlcA (FIG. 11 legend; b102 says 100 mM), 100 mM Tris pH 8.0 (GOOX variants) or 50 mM sodium acetate pH 5.0 (GO)
[7] = Kinetics of GOOX-Y300A on MeGlcA (H2O2 colorimetric assay); type: biochemical; details: up to 60 mM MeGlcA, 0.3 M Tris buffer pH 8.0, 40° C.
Protocol: The specific activity of GOOX-Y300A (16 nM) on MeGlcA and GlcA (1 mM) was measured in 50 mM Tris buffer pH 8.0 at 40° C. The amount of methyl glucaric acid was determined by measuring the release of H2O2 using a previously published colorimetric assay (Lin et al., 1991). The kinetics of GOOX-Y300A on these acidic sugars were measured at the same condition, but using up to 60 mM MeGlcA and GlcA and in 0.3 M Tris buffer pH 8.0.
There was a dose response for the production of methyl glucaric acid, as the relative abundance of methyl glucaric acid increased when the substrate concentration was raised from 1 mM to 10 mM.

[8] = 200 mM H2O2; cited from earlier work; remark: listed apart in the source
[9] = MeGlcA oxidation by GOOX-Y300A, substrate consumption by HPAEC-PAD; type: biochemical; details: after 24 h, 300 mM Tris buffer, 60 mM MeGlcA, based on substrate consumption
Source text: Reaction samples were vacuum-filtered using 0.22-μm, PVDF filter plates (Millipore, USA) with a Tecan liquid handler (500 mbar) (Tecan Trading AG, Switzerland). The flow-through was collected to Nunc™ 96-well polypropylene microplates (Thermo Fisher Scientific, USA), and covered with Nunc™ 96-well silicone cap mats. The presence of acidic sugars was detected using an ICS5000 HPAEC-PAD system (Dionex, USA) with a CarboPac PA1 (2×250 mm) analytical column (Dionex, USA). The HPAEC-PAD samples were eluted at 0.25 mL/min using NaOAc gradient (0-0.5 M) in 0.1 M NaOH. Chromatograms were analyzed using Chromeleon 7.2 (Dionex, USA).
In an attempt to improve the oxidation of GOOX-Y300A, the ionic strength of the Tris buffer was increased to 300 mM and the concentration of MeGlcA was brought up to 60 mM, higher than its Km. NSI-MS confirmed an increase in the intensity ratio of methyl glucaric acid over MeGlcA (FIG. 9). […] Provided that a similar xylan source was used, the conversion yield reported from the 3-enzyme pathway by Lee et al. (2016) (Lee et al., 2016a) was estimated ca. 20%, as determined by measuring NADH absorbance at 340 nm.

Molecule	concentration of MeGlcA released from glucuronoxylan [1] [mM]	activity lost in the presence of H2O2 ([2]; 10 mM H2O2)	H2O2 concentration at which activity was inhibited ([2]; 1% glucuronoxylan, 50 mM Tris pH 8.0, 40° C., 16 h)	effect of higher H2O2 concentrations on MeGlcA released from glucuronoxylan ([2]; peak area, HPAEC-PAD, FIG. 10A)	specific activity on MeGlcA (in words) ([3]; among GOOX variants, FIG. 7)	nmol oxidized MeGlcA Mean ([3]; enzyme 16 nM, 37° C., 1 mM MeGlcA (FIG. 11 legend; b102 says 10 mM), 100 mM Tris pH 8.0 (GOOX variants) or 50 mM sodium acetate pH 5.0 (GO)) [nmol]	activity with MeGlcA as substrate (in words) ([3]; screening, compared with wtGOOX)	activity retained on glucose [4]	Km [5] [mM]	nmol oxidized GlcA Mean [6] [nmol]	Km [7] [mM]	kcat on MeGlcA [7] [s⁻¹]	activity retained on cellobiose [8] [%]	efficiency on MeGlcA oxidation [9] [%]
B1	21.6 ± 1.2	approximately half of AxyAgu115A activity was lost	greater than 1 mM	lowered the amount of MeGlcA released										
B2					highest specific activity	2.5	improved activity over wtGOOX	more than 50%	8.1	-0.03566	21 ± 2	0.0152 ± 0.001	100	62
